{
  "source": "patent US20180086841A1",
  "about": "(Merck Sharp & Dohme, published 2018)",
  "binders": {"B1": {"name": "hCD27.131A (mouse parental 131A) (antibody, mouse IgG1, V domains shown)", "VH": "QIQLVQSGPELKKPGETVKISCKASGYTFTNYGMNWVKQAPGKGLKWMGWINTNTGEPTYAEEFKGRFAFSLETSATTAYLQINNLKNEDTATYFCAREGDAMDYWGQGTSVTVSS", "VL": "QIVLTQSPAIMSASPGEKVTMTCSASSSVSYMHWYQQKSGTSPKRWIYDTSKLASGVPARFSGSGSGTSYSLTISSMEAEDAATYYCQQWNSYPFTFGSGTKLEIK", "notes": "Mouse IgG1 antibody; also called mouse hCD27.131A"}},
  "key": {"[1]": {"target": "T1, Q15A", "T1 construct": "also called hCD27 Q15A", "T1 receptor chain": "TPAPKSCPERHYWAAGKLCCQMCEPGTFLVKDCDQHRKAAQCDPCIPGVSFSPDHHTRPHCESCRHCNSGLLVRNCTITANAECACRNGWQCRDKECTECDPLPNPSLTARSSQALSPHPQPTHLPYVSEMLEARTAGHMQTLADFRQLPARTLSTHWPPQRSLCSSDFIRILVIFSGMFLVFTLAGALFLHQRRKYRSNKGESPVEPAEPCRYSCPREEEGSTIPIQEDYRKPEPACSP", "assay": "flow cytometry on CHO-K1 transfectants, left sub-column", "description": "(§1) The hCD27 variants that were tested are listed. Amino acids correspond to the UniProt P26842-1 sequence. Amino acids 1-20 constitute the signal peptide. Binding is expressed as the geometric mean of the FITC signal, relative to antibody binding to hCD27, which was set at 100%.\n(§2) The ability of several anti-hCD27 antibodies to bind to a series of hCD27 alanine mutants was determined using CHO-K1 cells, transiently transfected pCI-neo empty vector, pCI-neo.hCD27 and several pCI-neo.CD27Ala mutant constructs.\n(§3) Detached cells were transferred to 96 wells round-bottomed well plates at approximately 1.2×10⁵ cells/well. After spinning down the cells, discarding the supernatants and re-suspending the cells in the residual volume, the primary antibodies were added and incubated for 30 minutes at 4° C. Cells were washed three times with DPBS/BSA 1%, followed by centrifugation, discarding of the supernatants and re-suspension in the residual volume. […] After washing once, antibody binding was detected using the HTS plate reader (FACS Canto II) and FlowJo software for data analysis. Debris, dead cells and doublets were excluded from the analysis. Binding was expressed as the geometric mean of the FITC signal, relative to antibody binding to hCD27, which was set at 100%."}, "[2]": {"target": "T2, V30A", "T2 construct": "also called hCD27 V30A", "T2 receptor chain": "T1 receptor chain with A15Q, V30A", "assay": "flow cytometry on CHO-K1 transfectants, left sub-column", "description": "as §1, §2, §3"}, "[3]": {"target": "T3, N88A", "T3 construct": "also called hCD27 N88A", "T3 receptor chain": "T1 receptor chain with A15Q, N88A", "assay": "flow cytometry on CHO-K1 transfectants, left sub-column", "description": "as §1, §2, §3"}, "[4]": {"target": "T4, G89A", "T4 construct": "also called hCD27 G89A", "T4 receptor chain": "T1 receptor chain with A15Q, G89A", "assay": "flow cytometry on CHO-K1 transfectants, left sub-column", "description": "as §1, §2, §3"}, "[5]": {"target": "T5, R93A", "T5 construct": "also called hCD27 R93A", "T5 receptor chain": "T1 receptor chain with A15Q, R93A", "assay": "flow cytometry on CHO-K1 transfectants, left sub-column", "description": "as §1, §2, §3"}, "[6]": {"target": "T6, W13A", "T6 construct": "also called hCD27 W13A", "T6 receptor chain": "T1 receptor chain with W13A, A15Q", "assay": "flow cytometry on CHO-K1 transfectants, left sub-column", "description": "as §1, §2, §3"}, "[7]": {"target": "T7, H36A", "T7 construct": "also called hCD27 H36A", "T7 receptor chain": "T1 receptor chain with A15Q, H36A", "assay": "flow cytometry on CHO-K1 transfectants, left sub-column, cell hatched (loss of binding)", "description": "as §2, §3"}, "[8]": {"target": "T8, R37A", "T8 construct": "also called hCD27 R37A", "T8 receptor chain": "T1 receptor chain with A15Q, R37A", "assay": "flow cytometry on CHO-K1 transfectants, left sub-column, cell hatched (loss of binding)", "description": "as §2, §3"}, "[9]": {"target": "T9, K38A", "T9 construct": "also called hCD27 K38A", "T9 receptor chain": "T1 receptor chain with A15Q, K38A", "assay": "flow cytometry on CHO-K1 transfectants, left sub-column, cell hatched (loss of binding)", "description": "as §2, §3"}, "[10]": {"target": "T10, P8A", "T10 construct": "also called hCD27 P8A", "T10 receptor chain": "T1 receptor chain with P8A, A15Q", "assay": "flow cytometry on CHO-K1 transfectants, left sub-column, cell hatched (loss of binding)", "description": "as §2, §3"}},
  "note": "Where a chain is given by its changes, count along the chain named.",
  "data": [
    {"binder": "B1", "values": [
      {"measurement": "binding, WT hCD27 = 100 (GM FITC)", "setting": "[1]", "value": 99.6, "unit": "%"},
      {"measurement": "binding, WT hCD27 = 100 (GM FITC)", "setting": "[2]", "value": 170, "unit": "%"},
      {"measurement": "binding, WT hCD27 = 100 (GM FITC)", "setting": "[3]", "value": 162, "unit": "%"},
      {"measurement": "binding, WT hCD27 = 100 (GM FITC)", "setting": "[4]", "value": 113, "unit": "%"},
      {"measurement": "binding, WT hCD27 = 100 (GM FITC)", "setting": "[5]", "value": 125, "unit": "%"},
      {"measurement": "binding, WT hCD27 = 100 (GM FITC)", "setting": "[6]", "value": 86, "unit": "%"},
      {"measurement": "binding, WT hCD27 = 100 (GM FITC)", "setting": "[7]", "value": 54.1, "unit": "%"},
      {"measurement": "binding, WT hCD27 = 100 (GM FITC)", "setting": "[8]", "value": 50.3, "unit": "%"},
      {"measurement": "binding, WT hCD27 = 100 (GM FITC)", "setting": "[9]", "value": 48.2, "unit": "%"},
      {"measurement": "binding, WT hCD27 = 100 (GM FITC)", "setting": "[10]", "value": 44.9, "unit": "%"}
    ]}
  ]
}
